Data on one molecule can be found in US20160311918A1, “Anti-Ron Monoclonal Antibodies as a Cytotoxic Drug Delivery System for Targeted Cancer Therapy” (TEXAS TECH UNIVERSITY SYSTEM, priority 2013, published 2016).

One experiment has as its system RON-negative LoVo cells. As to the kind of experiment: Cell viability assay, LoVo. It counts as cell-based, human. Here is the method: (§1) Cell viability and death assays: Cell viability 72 h after Zt/g4-DM1 treatment was determined by the MTT assay (22). Viable or dead cells were determined by the trypan blue exclusion assay. A total of 900 cells were counted from three individual wells to reach the percentages of dead cells.
The effect of Zt/g4-DM1 on cell viability was determined. […] The cells were treated with Zt/g4-DM1.

Experiment [1] has as its system three CRC cell lines (HCT116, HT29, SW620). Format: cell-based, human. Also on record: cell death: dose or concentration left out as unconfirmed. Here is the method: Cell viability was determined by the MTS assay. […] Morphological changes were observed under the Olympus BK-41 inverted microscope and photographed. […] FIG. 3D: Cell death percentages were determined by the trypan blue exclusion method.
as §1

Experiment [2] has as its system PDAC cell-mediated tumor growth. In words: Mouse xenograft PDAC model. It counts as in vivo. The note with it: mouse PDAC xenograft models. Here is the method:
Mouse xenograft PDAC model and anti-RON ADC treatment: Female athymic nude mice were injected with 5×106 L3.6PL, BxPC-3, or FG cells into the subcutaneous space of the right flank. Treatment began when all tumors have reached an average tumor volume of 100 to 200 mm3 The single-dose effect was studied by injection of 20 mg/kg Zt/g4-DM1. Tumor volumes were determined every four days using a previously described formula: V=pi/6×1.58×(length×width)3/2.

In another experiment the target is cell surface RON (Homo sapiens, UniProt Q04912). As to the kind of experiment: Kinetic reduction of cell surface RON (endocytosis) in CRC cells. Format: cell-based. Also on record: We selected CRC cell lines HT29, HCT116, and SW620 expressing variable levels of RON as the cellular model; host or cells: HCT116, HT29, SW620. Particulars: for time required to induce 50% RON reduction (internalization efficacy): 37° C. Here is the method:
FIGS. 2A to 2F show the binding and induction of RON endocytosis by Zt/g4-DM1 in CRC cells. FIG. 2A: Levels of RON expression by different CRC cell lines: Five CRC cells lines (1×10^6 cells/ml) in PBS were incubated at 4° C. with 5 μg/ml Zt/g4 for 60 min. […] matched mouse IgG was used as the control. Cell surface RON was quantitatively determined by the immunofluorescence assay using QIFKIT® reagents from DAKO (Carpentaria, Calif.) as detailed in Materials and Methods. FIG. 2B: Binding of Zt/g4-DM1 to human CRC cell lines: HCT116, HT29, and SW620 cells (1×10^5 cells) were incubated with 5 μg Zt/g4-DM1 or Zt/c1-DM1. Free Zt/g4 and Zt/c1 was used as the control. Fluorescence intensity from individual samples was determined by flow cytometric analysis. FIG. 2C: Kinetic reduction of cell surface RON: HCT116, HT29, and SW620 cells (1×10^6 cells per dish) were treated at 37° C. with 5 μg/ml of Zt/g4-DM1, collected at different time points, washed with acidic buffer to eliminate cell surface bound IgG, and then incubated with 1 μg/mL of anti-RON mAb 2F2 Immunofluorescence was analyzed by flow cytometer using FITC-coupled anti-mouse IgG Immunofluorescence from cells treated with Zt/g4-DM1 or Zt/c1-DM1 at 4° C. was set as 100%. Internalization efficiency was calculated as the time required to achieve 50% cell surface RON reduction. FIG. 2D: RON reduction analysis by Western blotting: Cellular proteins (50 μg per lane) from cells treated with 5 μg/ml of Zt/g4 or Zt/g4-DM1 for various times were separated in an 8% SDS-PAGE under reduced conditions and transferred to the membrane. RON was detected by rabbit anti-RON antibody followed enhanced chemiluminescent reagents. The same membrane was reprobed for actin as the loading control. FIG. 2E: Quantitative measurement of RON expression: The intensity of individual RON-β chains was determined by densitometric analysis. Internalization efficiency was calculated as the time required to achieve a 50% RON reduction. FIG. 2F: Immunofluorescent localization of cytoplasmic RON: HT29 cells (1×10^5 cells per chamber) were treated at 4° C. or 37° C. with 5 μg/ml of Zt/g4-DM1 or Zt/c1-DM1 for 6 h followed by FITC-coupled anti-mouse IgG. After cell fixation, immunofluorescence was detected using the BK70 Olympus microscope equipped with a fluorescence apparatus. LAMP1 was used as a marker for protein cytoplasmic localization. DAPI was used to stain nuclear DNA;
Zt/g4-DM1-induced RON endocytosis was studied, which is a process essential for delivering DM1 into CRC cells. Zt/g4-DM1 causes a progressive reduction of cell surface RON in a time-dependent manner in all three CRC cell lines tested (FIG. 2C). Less than 20% of RON remained on the cell surface after a 48 hour treatment. […] Thus, Zt/g4-DM1 is more efficient and potent in induction of RON endocytosis.

Entries after “also recorded” stand apart in the source; their conditions may differ.

cell surface RON, sequence (Q04912 310-1400 limits assumed): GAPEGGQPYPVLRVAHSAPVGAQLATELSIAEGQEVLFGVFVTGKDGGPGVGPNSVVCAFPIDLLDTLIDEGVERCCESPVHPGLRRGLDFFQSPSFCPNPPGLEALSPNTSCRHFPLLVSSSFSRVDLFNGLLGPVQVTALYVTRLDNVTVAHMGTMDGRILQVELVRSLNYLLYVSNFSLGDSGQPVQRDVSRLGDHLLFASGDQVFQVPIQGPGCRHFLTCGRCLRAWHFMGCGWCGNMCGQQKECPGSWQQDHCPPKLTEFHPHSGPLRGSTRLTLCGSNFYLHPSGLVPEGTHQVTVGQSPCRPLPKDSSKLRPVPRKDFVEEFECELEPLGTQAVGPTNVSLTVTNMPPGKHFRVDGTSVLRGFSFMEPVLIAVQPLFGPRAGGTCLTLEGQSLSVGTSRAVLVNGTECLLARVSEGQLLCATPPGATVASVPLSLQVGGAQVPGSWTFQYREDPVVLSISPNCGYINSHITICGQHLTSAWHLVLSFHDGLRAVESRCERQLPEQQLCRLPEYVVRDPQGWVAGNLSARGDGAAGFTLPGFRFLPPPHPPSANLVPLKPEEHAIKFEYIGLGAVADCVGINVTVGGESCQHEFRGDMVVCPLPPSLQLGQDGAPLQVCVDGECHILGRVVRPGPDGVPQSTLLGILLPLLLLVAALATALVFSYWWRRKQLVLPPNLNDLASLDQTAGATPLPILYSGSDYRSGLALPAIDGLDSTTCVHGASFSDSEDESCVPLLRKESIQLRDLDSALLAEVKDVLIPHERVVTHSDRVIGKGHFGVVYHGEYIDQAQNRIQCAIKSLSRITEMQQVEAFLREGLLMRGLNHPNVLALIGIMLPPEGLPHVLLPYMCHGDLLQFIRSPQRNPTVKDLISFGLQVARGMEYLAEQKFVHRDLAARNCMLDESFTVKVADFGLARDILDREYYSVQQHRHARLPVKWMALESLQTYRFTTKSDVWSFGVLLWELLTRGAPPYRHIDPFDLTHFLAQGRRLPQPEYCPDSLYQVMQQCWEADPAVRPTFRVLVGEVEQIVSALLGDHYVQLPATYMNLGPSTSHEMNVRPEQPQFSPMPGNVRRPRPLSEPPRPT
cell surface RON, sequence (Q04912 25-304 limits assumed): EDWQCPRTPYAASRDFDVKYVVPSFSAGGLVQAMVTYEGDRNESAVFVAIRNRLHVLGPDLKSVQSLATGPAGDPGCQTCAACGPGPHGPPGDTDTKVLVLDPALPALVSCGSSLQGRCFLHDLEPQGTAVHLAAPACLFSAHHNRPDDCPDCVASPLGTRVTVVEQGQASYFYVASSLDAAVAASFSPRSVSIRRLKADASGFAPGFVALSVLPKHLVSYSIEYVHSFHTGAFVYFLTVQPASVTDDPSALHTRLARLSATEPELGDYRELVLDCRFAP

B1: Zt/g4-DM1: anti-RON mouse mAb Zt/g4 conjugated to maytansinoid DM1 via non-reducible thioether linkage (SMCC), DAR about 4:1 (conjugate)
VH: EVQLQQSGAELVKPGASVKLSCTTSGFNIIDTYIHWVNQKPDQGLEWIGRIDPADGNRKSDPKFQVKATITVDTSSNTAYLQLSSLTSGDTAVYYCARGYGNLNAMDSWGQGTSVTVSS
VL: DIQMNQSPSSLSASLGDTITITCHASQNINVWLNWYQQKPGNIPKLLIYKASNLHTGVPSRFSGSGSGTGFTLTISSLQPEDIATYYCQQGQSYPLTFGGGTKLEIK
Regarding B1, the “effect on cell viability” value in the experiment on RON-negative LoVo cells is given as “no effect”. The molecule further came in with an IC50 cell death in experiment [1] of 5 to 7 µg/mL. Moreover, the cell death entry in experiment [1] (72 h) is “More than 50%”. The “inhibition of PDAC xenograft tumor growth” value in experiment [2] is given as “highly effective in inhibiting PDAC cell-mediated tumor growth; also recorded: highly effective in inhibition of xenograft PDAC growth”. In addition, the “time required to induce 50% RON reduction (internalization efficacy)” value with cell surface RON (HCT116, 5 μg/ml) is 12.26 h; in the experiment with cell surface RON (HT29, 5 μg/ml), 11.02 h; with cell surface RON (SW620, 5 μg/ml), 12.30 h. Moreover, the “RON remaining on the cell surface” value with cell surface RON (after 48 hour treatment, 5 μg/ml, three CRC cell lines) is listed as “Less than 20%”. Besides, the “cell surface RON internalized” value with cell surface RON (within 48 h) is on record as above 80%.
